For assay [1], the target named is T1, cell-surface CD3 epsilon on primary cynomolgus T cells (cynomolgus monkey, UniProt Q95LI5 22-198).
T1 construct: whole, on cells; also called cynomolgus CD3e; Cyno T-cells
Briefly: flow cytometry on primary cynomolgus CD4+ T cells, anti-human IgG Alexa Fluor 647; MFI. As for the experimental part: (§1) The resulting panel of anti-CD3 antibodies was tested for binding against cell-surface CD3ε on primary human T cells. To do this, binding of antibodies from expression supernatants was visualized using a polyclonal anti-human secondary antibody and analyzed by flow cytometry. Briefly, binding of anti-CD3 antibodies to cell-surface CD3ε was assessed by flow cytometry using primary Human T lymphocytes purified by negative selection (Biological Specialty, Colmar, USA). Expression supernatants or purified antibodies were normalized to 10 μg/ml in media or FACS buffer (BD BioSciences), respectively. 2×10⁵ cells were aliquoted into wells of a 96 well round-bottomed plate (CoStar) for labeling. Antibodies in expression supernatant were added to cells and incubated for 45 min at 4° C. Following centrifugation at 1300 rpm for 3 min and removal of supernatant, 50 μL of anti-human IgG (H+L) Alexa Fluor 647 secondary antibody (Life technologies Inc.) was incubated with the cells at a final concentration of 10 μg/mL for 30 min at 4° C. away from direct light. Following washing and resuspension in 30 μL FACs buffer (BD BioSciences). Sample collection was performed on an Intellicyt HTFC system using ForeCyt software. Viable single cells were gated prior to analysis of binding using the green or red fixable live/dead dyes (Life Technologies Inc.) and forward/side scatter area and height parameters, respectively. Graphs were generated in GraphPad Prism version 5 using mean fluorescence intensity values.
Binding analysis of the anti-CD3 hits to primary cynomolgusCD4⁺ T cells was then tested in order to assess the retention of cross-reactivity. Purified CD4⁺ T cells from the peripheral blood of cynomolgus monkeys (Zen Bio, Triangle Research Park, USA were used). Assay protocols were similar to those described above.
For orientation: In flow cytometry, cells or beads pass a laser one at a time.

In assay [2] the target is T2, cell-surface CD3 epsilon on primary human T cells (human, UniProt P07766 23-207).
T2 construct: whole, on cells; part of the CD3/TCR complex on the cells
T2 sequence (P07766 23-207): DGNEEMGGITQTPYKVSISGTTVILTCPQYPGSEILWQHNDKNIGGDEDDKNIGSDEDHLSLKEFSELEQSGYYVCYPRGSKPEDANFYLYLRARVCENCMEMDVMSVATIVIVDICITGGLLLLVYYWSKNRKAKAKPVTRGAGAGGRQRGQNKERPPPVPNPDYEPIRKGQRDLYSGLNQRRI
Briefly: flow cytometry on primary human T cells, anti-human IgG Alexa Fluor 647; MFI. As for the experimental part:
as §1

T1 sequence (Q95LI5 22-198): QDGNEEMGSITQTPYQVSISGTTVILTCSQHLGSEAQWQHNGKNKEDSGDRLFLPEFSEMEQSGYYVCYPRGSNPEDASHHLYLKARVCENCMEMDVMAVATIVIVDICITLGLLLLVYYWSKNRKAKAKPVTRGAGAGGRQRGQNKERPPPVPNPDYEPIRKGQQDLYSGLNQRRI

B1: CD3B124 (antibody, human IgG1, V domains shown)
VH: EVKLLESGGGLVQPKGSLKLSCAASGFTFNTYAMNWVRQAPGKGLEWVARIRSKYNNYATYYADSVKDRFTISRDDSQSILYLQMNNLKTEDTAMYYCVRHGNFGNSYVSWFAYWGQGTLVTVSA
VL: QAVVTQESALTTSPGETVTLTCRSSTGAVTTSNYANWVQEKPDHLFTGLIGGTNKRAPGVPARFSGSLIGDKAALTITGAQTEDEAIYFCALWYSNLWVFGGGTKLTVL
notes: Chimeric: VH and VL of SP34 with murine framework and a human IgG1 Fc; also called in-house chimeric SP34-derived antibody
B1: the binding result in assay [1] is reported as “binds”.

B2: G11 (antibody, V domains shown)
VH: EVQLLESGGGLVQPGGSLRLSCAASGFTFSSYGMSWVRQAPGKGLEWVSGINGGGGSKYYADSVKGRFTISRDNSKNTLYLQMNSLRAEDTAVYYCAKTSAQRFDYWGQGTLVTVSS
VL: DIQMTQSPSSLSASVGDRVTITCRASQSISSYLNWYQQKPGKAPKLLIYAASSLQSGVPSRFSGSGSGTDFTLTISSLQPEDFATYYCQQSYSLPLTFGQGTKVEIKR
notes: in-house phage-derived anti-CD3 positive control with the same Fc region as the tested antibodies
In the case of B2, the binding result in assay [2] is reported as “binds”.

B3: CD3B143 (antibody, IgG1, V domains shown)
VH: EVQLVESGGGLVQPGGSLRLSCAASGFTFNTYAMNWVRQAPGKGLEWVARIRSKYNNYATYYAASVKGRFTISRDDSKNSLYLQMNSLKTEDTAVYYCARHGNFGNSYVSWFAYWGQGTLVTVSS
VL: QAVVTQEPSLTVSPGGTVTLTCRSSTGAVTTSNYANWVQQKPGQAPRGLIGGTNKRAPGTPARFSGSLLGGKAALTLSGAQPEDEAEYYCALWYSNLWVFGGGTKLTVL
notes: IgG1 constant region with L234A, L235A, F405L; human lambda light chain constant region
In the case of B3, the binding result in assay [2] and in assay [1] was “binds” each time.

B4: CD3B148 (antibody, IgG1, V domains shown)
VH: EVQLLESGGGLVQPGGSLRLSCAASGFTFNTYAMNWVRQAPGKGLEWVARIRSKYNNYATYYADSVKGRFTISRDNSKNTLYLQMNSLRAEDTAVYYCAKHGNFGNSYVSWFAYWGQGTLVTVSS
VL: QSVLTQPPSVSAAPGQKVTISCRSSTGAVTTSNYANWVQQLPGTAPKGLIGGTNKRAPGIPDRFSGSKSGTSATLGITGLQTGDEADYYCALWYSNLWVFGGGTKLTVL
notes: as for B3
B4: in assay [1], the binding result is given as “no binding (tested: not printed)”.

B5: CD3B158 (antibody, IgG1, V domains shown)
VH: EVQLVESGGGLVQPGGSLKLSCAASGFTFNTYAMNWVRQASGKGLEWVGRIRSKYNGYATYYAASVKGRFTISRDDSKNTAYLQMNSLKTEDTAVYYCTRHGNFGNSYVSWFAYWGQGTLVTVSS
VL: QTVVTQEPSLTVSPGGTVTLTCRSSTGAVTTSNYANWVQQKPGQAPRGLIGGTNKRAPGTPARFSGSLLGGKAALTLSGVQPEDEAEYYCALWYSNLWVFGGGTKLTVL
notes: as for B3
As to B5, the binding result in assay [2] and in assay [1] was “binds” each time.

B6: CD3B144 (antibody, IgG1, V domains shown)
VH: EVQLVESGGGLVQPGGSLRLSCAASGFTFNTYAMNWVRQAPGKGLEWVARIRSKYNNYATYYAASVKGRFTISRDDSKNSLYLQMNSLKTEDTAVYYCARHGNFGNSYVSWFAYWGQGTLVTVSS
VL: QSVLTQPPSVSAAPGQKVTISCRSSTGAVTTSNYANWVQQLPGTAPKGLIGGTNKRAPGIPDRFSGSKSGTSATLGITGLQTGDEADYYCALWYSNLWVFGGGTKLTVL
notes: as for B3
Regarding B6, the binding result in assay [2] is given as “no binding”.

B7: CD3B155 (antibody, IgG1, V domains shown)
VH: EVQLVESGGGLVQPGGSLKLSCAASGFTFNTYAMNWVRQASGKGLEWVGRIRSKYNGYATYYAASVKGRFTISRDDSKNTAYLQMNSLKTEDTAVYYCTRHGNFGNSYVSWFAYWGQGTLVTVSS
VL: QAVVTQEPSLTVSPGGTVTLTCRSSTGAVTTSNYANWVQQKPGQAPRGLIGGTNKRAPGTPARFSGSLLGGKAALTLSGAQPEDEAEYYCALWYSNLWVFGGGTKLTVL
notes: as for B3
For B7, the binding result in assay [2] and in assay [1] was “binds” each time.

B8: CD3B151 (antibody, IgG1, V domains shown)
VH: EVQLLESGGGLVQPGGSLRLSCAASGFTFNTYAMNWVRQAPGKGLEWVARIRSKYNNYATYYADSVKGRFTISRDNSKNTLYLQMNSLRAEDTAVYYCVKHGNFGNSYVSWFAYWGQGTLVTVSS
VL: QAVVTQEPSLTVSPGGTVTLTCRSSTGAVTTSNYANWVQQKPGQAPRGLIGGTNKRAPGTPARFSGSLLGGKAALTLSGAQPEDEAEYYCALWYSNLWVFGGGTKLTVL
notes: as for B3
With B8, the binding result in assay [2] and in assay [1] was “binds” in each case.

B9: CD3B156 (antibody, IgG1, V domains shown)
VH: EVQLVESGGGLVQPGGSLKLSCAASGFTFNTYAMNWVRQASGKGLEWVGRIRSKYNGYATYYAASVKGRFTISRDDSKNTAYLQMNSLKTEDTAVYYCTRHGNFGNSYVSWFAYWGQGTLVTVSS
VL: QSVLTQPPSVSAAPGQKVTISCRSSTGAVTTSNYANWVQQLPGTAPKGLIGGTNKRAPGIPDRFSGSKSGTSATLGITGLQTGDEADYYCALWYSNLWVFGGGTKLTVL
notes: as for B3
Take B9: the binding result in assay [2] and in assay [1] was “binds” in each case.

B10: CD3B152 (antibody, IgG1, V domains shown)
VH: EVQLLESGGGLVQPGGSLRLSCAASGFTFNTYAMNWVRQAPGKGLEWVARIRSKYNNYATYYADSVKGRFTISRDNSKNTLYLQMNSLRAEDTAVYYCVKHGNFGNSYVSWFAYWGQGTLVTVSS
VL: QSVLTQPPSVSAAPGQKVTISCRSSTGAVTTSNYANWVQQLPGTAPKGLIGGTNKRAPGIPDRFSGSKSGTSATLGITGLQTGDEADYYCALWYSNLWVFGGGTKLTVL
notes: as for B3
B10: the binding result was “no binding” in assay [2] and “no binding (tested: not printed)” in assay [1].

B11: CD3B154 (antibody, IgG1, V domains shown)
VH: EVQLLESGGGLVQPGGSLRLSCAASGFTFNTYAMNWVRQAPGKGLEWVARIRSKYNNYATYYADSVKGRFTISRDNSKNTLYLQMNSLRAEDTAVYYCVKHGNFGNSYVSWFAYWGQGTLVTVSS
VL: QTVVTQEPSLTVSPGGTVTLTCRSSTGAVTTSNYANWVQQKPGQAPRGLIGGTNKRAPGTPARFSGSLLGGKAALTLSGVQPEDEAEYYCALWYSNLWVFGGGTKLTVL
notes: as for B3
As for B11, the binding result in assay [2] and in assay [1] was “binds” throughout.

(Values after US20160068605A1 (Janssen / Centocor, published 2016).)
